{"source": "patent US20230310584A1", "about": "(published 2023)", "binders": {"B1": {"name": "His-tagged CD64 (Acrobiosystems, FCA-H52H1) (receptor)", "chain": "QVDTTKAVITLQPPWVSVFQEETVTLHCEVLHLPGSSSTQWFLNGTATQTSTPSYRITSASVNDSGEYRCQRGLSGRSDPIQLEIHRGWLLLQVSSRVFTEGEPLALRCHAWKDKLVYNVLYYRNGKAFKFFHWNSNLTILKTNISHNGTYHCSGMGKHRYTSAGISVTVKELFPAPVLNASVTSPLLEGNLVTLSCETKLLLQRPGLQLYFSFYMGSKTLRGRNTSSEYQILTARREDSGLYWCEAATEDGNVLKRSPELELQVLGLQLPTP"}}, "molecular_target": "RBD-iFcv1 (SARS-CoV-2; human, 23 residues replaced …)", "note": "Values joined by “and” are separate entries in the source; they are usually repeats but may differ in a detail not shown here. Identical values can stand only once."}
{"binder": "B1", "values": [{"measurement": "Kd", "result": "2.34 nM and 1.61 nM and 0.963 nM"}, {"measurement": "kon", "result": "260000 M⁻¹ s⁻¹ and 189000 M⁻¹ s⁻¹ and 200000 M⁻¹ s⁻¹"}]}
